Data on 1 molecule can be found in article PMC3540207 (Nature structural & molecular biology, 2012).

The test deals with ATG3 (human, recombinant) (human, UniProt Q9NT62 1-314). The test is described as follows: ITC. (In general: Isothermal titration calorimetry measures the heat released or taken up as one component is titrated into another.)
Sequence of ATG3 (human, recombinant) (Q9NT62 whole entry): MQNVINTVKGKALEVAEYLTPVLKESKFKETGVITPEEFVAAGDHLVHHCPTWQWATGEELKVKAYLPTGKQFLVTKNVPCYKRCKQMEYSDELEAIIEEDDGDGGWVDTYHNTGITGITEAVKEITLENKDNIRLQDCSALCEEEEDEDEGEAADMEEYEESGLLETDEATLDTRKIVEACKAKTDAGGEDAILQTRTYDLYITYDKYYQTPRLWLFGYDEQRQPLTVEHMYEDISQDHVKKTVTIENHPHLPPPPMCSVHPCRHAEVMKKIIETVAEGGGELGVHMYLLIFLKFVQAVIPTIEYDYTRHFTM

B1: unconjugated ATG12 (human, recombinant) (natural protein, UniProt O94817 1-140, looked up)
chain: MAEEPQSVLQLPTSIAAGGEGLTDVSPETTTPEPPSSAAVSPGTEEPAGDTKKKIDILLKAVGDTPIMKTKKWAVERTRTIQGLIDFIKKFLKLVASEQLFIYVNQSFAPSPDQEVGTLYECFGSDGKLVLHYCKSQAWG
For B1, the Kd – broadly, the equilibrium constant for the complex coming apart – was found to be 117 nM.
